# Reference: paper PMC9542875
# Legend:
# [1] = molecular target: allophycocyanin αβ dimer (purified APC, Sigma-Aldrich A7472) (UniProt P72504); assay: native MS; purified APC, 1 μM hexamer (6 μM bilin); 100 mM ammonium acetate; without metal ions and with Ag+, Cu2+, Fe2+/3+ or Zn2+ (oligomeric equilibrium unchanged on a short timescale; prolonged exposure to Cu2+ gives dissociation towards the dimer)
# [2] = molecular target: phycocyanin αβ dimer (Arthrospira maxima CCAP 1475/9) (Arthrospira maxima (CCAP 1475/9)); assay: native MS; purified PC without metal ions, 1 μM hexamer (Fig. 1D); 100 mM ammonium acetate pH 6.8; nano-electrospray, Orbitrap; hexamer to αβ dimers
# [3] = molecular target: phycocyanin αβ dimer (Arthrospira maxima CCAP 1475/9) (Arthrospira maxima (CCAP 1475/9)); assay: native MS; purified PC (24 μM bilin) with Ag+ at 0.25 and 0.5 bilin equivalents; 100 mM ammonium acetate
stoichiometry N [1],stoichiometry N [2],stoichiometry N [3],Substance
3,–,–,"allophycocyanin αβ dimer (purified APC, Sigma-Aldrich A7472) (from UniProt P72504 1-161; P72505 1-161) (complex)"
–,3,2,phycocyanin αβ dimer (Arthrospira maxima CCAP 1475/9) (from UniProt P72509 1-162; P72508 1-172) (complex)
